± gives the standard deviation.
Assay: protein stability index of a GFP-peptide fusion (GPS, HEK-293T) (PSI 1-6); higher = more stable
Settings: c terminus: a fixed tail appended
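Note: 24-mer peptide tiles fused after GFP, lentivirally expressed, FACS-sorted into six equal bins by GFP/DsRed ratio, decoded by Illumina sequencing, PSI is the read-weighted mean bin number.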

Sequence | protein stability index (treatment: DMSO) | protein stability index (treatment: MLN4924 1 uM, 8 h)
CYKGHLEMVRFLLEAGADQEHKTD [ANKRD17] | 2.91 ± 0.13 | 3.02 ± 0.32
HVFSELWDLSEAWMQANYDPLSDS [ELOA2] | 2.6 ± 0.32 | 2.63 ± 0.31
QRVEQLTRDLAGLRQFFKQLPSPP [CEBPD] | 2.71 ± 0.34 | 2.82 ± 0.29
GCCKRRYLQKIEEFAEMVEREEED [KCNG1] | 3.57 ± 0.23 | 4 ± 0.53
KTEDENKQSFLDGGKGHHLPSENL [TOR1AIP2] | 5.4 ± 0.21 | 5.27 ± 0.22
GAQFEGEKGRALQIRDWRGGRLEN [ZSWIM9] | 4.24 ± 0.23 | 3.87 ± 0.57
TATTAPPALDIFGDLFESTPEVAA [SNAP91] | 4.62 ± 0.29 | 4.71 ± 0.2
NFCKEQAARISNKGKFSTDTKGKP [ZC2HC1A] | 3.78 ± 0.2 | 4.27 ± 0.31
FIARLQGSILQFNPEVGIFVSIAQ [SMG5] | 2.77 ± 0.59 | 2.64 ± 0.45
YVATEAILIALVGATPSYHWDLAE [SLC22A15] | 3.01 ± 0.39 | 3.27 ± 0.31
SGNFERCIRLWKYALDMQQSNLEP [FEM1A] | 2.12 ± 0.12 | 2.38 ± 0.48
LRRGHPAGGEENMTETDAFYKREM [CASP6] | 4.9 ± 0.2 | 4.43 ± 0.84
DNDPRDLIGDFSKGYLFHTVAGKH [CDC25A] | 3.2 ± 0.13 | 3.41 ± 0.19
WDLVSASVVCRELGFGSAKEAVTG [LOXL2] | 2.58 ± 0.31 | 2.61 ± 0.089
EKMMQEAEKLKAQGEYSRKLEERF [CCDC89] | 3.48 ± 0.24 | 3.56 ± 0.52
YRKQNAYIATQGSLPETFGDFWRM [PTPRD] | 2.54 ± 0.39 | 2.12 ± 0.08
AEESNPPLQDFPNSISSDKEATVP [MIA2] | 5.41 ± 0.1 | 5.36 ± 0.25
ICTNLCEALQNFFSLACSLMGPSR [M1AP] | 2.33 ± 0.28 | 2.26 ± 0.1

Sequence | protein stability index (treatment: DMSO) | protein stability index (treatment: MLN4924 1 uM, 8 h)
LLCAVCYDPFRDAVTLRCGHNFCR [TRIM35] | 2.38 ± 0.23 | 2.46 ± 0.29
LVHHRAAHSNEILIFSVQPKSLVR [KLHDC2] | 2.45 ± 0.31 | 2.21 ± 0.24
DQTGSKSSNLLDLKNPFFRYTGTT [CARM1] | 3.44 ± 0.18 | 3.28 ± 0.13
AALNMSLGMVTPVNDLRGSDSIAY [ADD1] | 2.48 ± 0.37 | 2.62 ± 0.22
VATTARHSAAYRADPLRVSSRDKL [FUNDC2] | 4.1 ± 0.096 | 4.1 ± 0.19
KLTREVLSLFVQKLGNLMSLDISG [ZER1] | 2.86 ± 0.81 | 2.56 ± 0.46
YNYMMGIEFNPRIGKWFDFKLFFN [DHCR7] | 2.52 ± 0.53 | 2.23 ± 0.33
TLKIRNSNFYTVAVTSLSSQIQYM [TMEM106C] | 2.23 ± 0.37 | 2.13 ± 0.36
SEPHYGHAGTVYGGVMYISGGITH [KLHL13] | 2.17 ± 0.47 | 2.14 ± 0.17
HGAVTVGGTSVGSLGVPGSVGGVP [ZBTB22] | 4.02 ± 0.61 | 4.06 ± 0.37
RAFNTDHQTQLLYQASAMMVESRY [RAD51] | 2.42 ± 0.35 | 2.68 ± 0.22
NQEILLPGGITSHQLLGLFPSTSY [TNXB] | 2.58 ± 0.092 | 2.53 ± 0.27
CPLCTSDRGSCVSTTEGIQLAKEL [RHOBTB3] | 3.23 ± 0.29 | 3.58 ± 0.38
TVASMMHRQETVDCLKKFNARRKL [CAMK2D] | 3.17 ± 0.15 | 3.73 ± 0.72
ADGGGAPPQGGCGGGGCDRYEPLP [KCNA3] | 4.54 ± 0.32 | 4.75 ± 0.16
RNTHKDLLRFAQVFSQMIHLNETV [FEM1B] | 2.74 ± 0.7 | 2.34 ± 0.48
VSSEDSFVCQCFEGYILREDGKTC [MATN2] | 3.04 ± 0.26 | 3.08 ± 0.57
GRGNFPTLEITLKDIVQTVRSRLE [TENT5C] | 2.65 ± 0.36 | 2.31 ± 0.2

Reference: the supplement of paper PMC10567573
